Paper PMC5648539 (Science signaling, 2017)
Changes are numbered by the printed parent chain. Each block holds one binder with its values, some of them ahead of it.

Target: wild-type CXCL12 (stromal cell-derived factor-1) (UniProt P48061-2 22-89)
Assay: radioligand binding

Kd: 1.45 nM
B1: FLAG-tagged human CXCR4, wild type (receptor, UniProt P61073 1-352, looked up)
chain: MEGISIYTSDNYTEEMGSGDYDSMKEPCFREENANFNKIFLPTIYSIIFLTGIVGNGLVILVMGYQKKLRSMTDKYRLHLSVADLLFVITLPFWAVDAVANWYFGNFLCKAVHVIYTVNLYSSVLILAFISLDRYLAIVHATNSQRPRKLLAEKVVYVGVWIPALLLTIPDFIFANVSEADDRYICDRFYPNDLWVVVFQFQHIMVGLILPGIVILSCYCIIISKLSHSKGHQKRKALKTTVILILAFFACWLPYYIGISIDSFILLEIIKQGCEFENTVHKWISITEALAFFHCCLNPILYAFLGAKFKTSAQHALTSVSRGSSLKILSKGKRGGHSSVSTESESSSFHSS

Kd: 45.7 nM
B2: FLAG-tagged human CXCR4 Ile4Glu/Ile6Glu (receptor, UniProt P61073 1-352, looked up)
chain: B1 chain with I4E, I6E
